US20190127468A1 (ONCOIMMUNE, published 2019)
Like-named read-outs stand apart in the source and are kept apart here.

T1: M16
T1 construct: human CTLA-4Fc mutant; also called CTLA-4Fc M16
T1 mutant human CTLA-4 extracellular domain fused to IgG1 Fc: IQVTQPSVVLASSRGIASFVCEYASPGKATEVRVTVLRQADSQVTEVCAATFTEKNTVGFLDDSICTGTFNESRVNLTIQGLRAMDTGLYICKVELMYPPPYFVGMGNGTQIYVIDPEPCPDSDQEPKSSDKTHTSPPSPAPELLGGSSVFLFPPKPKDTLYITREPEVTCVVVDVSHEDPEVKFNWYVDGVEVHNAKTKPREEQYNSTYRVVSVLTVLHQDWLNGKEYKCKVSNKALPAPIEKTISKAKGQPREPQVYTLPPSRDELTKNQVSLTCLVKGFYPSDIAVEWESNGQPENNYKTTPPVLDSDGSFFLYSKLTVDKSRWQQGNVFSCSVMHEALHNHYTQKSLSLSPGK


Columns and labels:
[1] = target: T2, mouse CTLA4-Fc fusion protein (mouse, UniProt P09793 36-162, limits assumed); test: blocking ELISA: plate B7-2, biotinylated mouse CTLA4-Fc with the antibody, HRP-streptavidin; blocked ligand B7-2
T2 construct: also called mCTLA4-Fc; mCTLA-4; not shown: Fc portion, not described

[2] = target: T2, mouse CTLA4-Fc fusion protein; test: ELISA, binding to soluble mouse CTLA4-Fc (the legend gives no further details of the format)
[3] = target: T3, mouse CTLA4 in cells of Ctla4 m/m (WT) mice (mouse, UniProt P09793 36-223); test: flow cytometry, intracellular staining of CTLA4 in spleen cells of Ctla4 m/m mice, gated on CD3+CD4+
T3 construct: whole, on cells; also called murine Ctla-4

Control IgG1-Fc [4] = target: T4, Control IgG1-Fc (human, UniProt P01857-1 99-330 = IgG part, limits assumed); test: ELISA: hIgGFc coated on the plate (negative control), biotinylated antibody in solution, HRP-streptavidin, OD450
T4 construct: domain: Fc; also called hIg-Fc; hIgG

[5] = target: T2, mouse CTLA4-Fc fusion protein; test: ELISA, plate-coated mCTLA4-Fc, biotinylated antibody
M14 = target: T5, M14; test: ELISA: CTLA-4Fc protein coated on the plate, biotinylated antibody in solution, HRP-streptavidin, OD450
T5 construct: human CTLA-4Fc mutant; also called CTLA-4Fc M14

M16 = target: T1, M16; test: as above
M12 = target: T6, M12; test: as above
T6 construct: human CTLA-4Fc with clusters of murine Ctla-4 residues; also called CTLA-4Fc M12

Control IgG1-Fc [6] = target: T4, Control IgG1-Fc; test: ELISA: hIgGFc coated on the plate (negative control), biotinylated antibody in solution, HRP-streptavidin, OD450; remark: listed apart in the source
[7] = target: T7, huCTLA4 (antigen of the Octet experiments) (human, UniProt P16410 37-162, limits assumed); test: BLI (Octet Red96), antibody on anti-hIgG Fc biosensor, huCTLA4 in solution, 1:1 fit
T7 construct: Construct of the soluble antigen not described; also called the antigen

[8] = target: T7, huCTLA4 (antigen of the Octet …); test: BLI (Octet), purified 0.1 L material, replicate 1
[9] = target: T7, huCTLA4 (antigen of the Octet …); test: BLI (Octet), purified 0.1 L material, replicate 2
[10] = target: T8, human CTLA-4Fc mutant protein M6 (human); test: ELISA on coated target; binder 100 ng/ml
T8 construct: also called Mutant 6

[11] = target: T8, human CTLA-4Fc mutant protein M6; test: ELISA on coated target; binder 10 ng/ml
[12] = target: T9, human CTLA-4Fc mutant protein M8 (human); test: ELISA on coated target; binder 1000 ng/ml
T9 construct: also called Mutant 8

[13] = target: T8, human CTLA-4Fc mutant protein M6; test: ELISA on coated target; binder 1000 ng/ml

T7 sequence (P16410 37-162 limits assumed): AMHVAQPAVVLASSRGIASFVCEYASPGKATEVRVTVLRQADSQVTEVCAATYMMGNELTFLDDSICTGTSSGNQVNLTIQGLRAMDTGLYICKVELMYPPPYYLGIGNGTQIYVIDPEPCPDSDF

Row | Binder | Kd [7] [nM] | koff [7] [s⁻¹] | kon [7] [M⁻¹ s⁻¹] | other results
1 | anti-mouse CTLA4 mAb 9D9 (antibody, V domains shown) VH: EAKLQESGPVLVKPGASVKMSCKASGYTFTDYYMNWVKQSHGKSLEWIGVINPYNGDTSYNQKFKGKATLTVDKSSSTAYMELNSLTSEDSAVYYCARYYGSWFAYWGQGTLITVST VL: DIVMTQTTLSLPVSLGDQASISCRSSQSIVHSNGNTYLEWYLQKPGQSPKLLIYKVSNRFSGVPDRFSGSGSGTDFTLKISRVEAEDLGVYYCFQGSHVPYTFGGGTKLEIK | – | – | – | IC50 (read off the curve) [1]: ~1 µg/mL; EC50 (read off the curve) [2]: ~0.4 µg/mL
2 | chimeric L3D10 antibody (antibody, V domains shown, Biotinylated in the ELISAs; also called Chimeric Parental; PP4629) VH: QVQLKESGPGLVAPSQSLSITCTVSGFSLTSYGLSWVRQPPGKGLEWLGVIWYDGNTNFHSALISRLTISKDNSKSQVFLELNSLQTDDTATYYCAKTEGHYYGSNYGYYALDYWGQGTSVTVSS VL: DIQMTQSPASLSVSVGETVTITCRASENIYSNLAWYQQKQGKSPQLLVYAATNLADGVPSRFSGSGSGTQYSLKINSLQSEDFGTYFCQHLWGTPYTFGGGTKLEIKR | – | – | – | binding result [3]: no binding
3 | Humanized HC1 + LC2 (PP4631) (antibody, IgG1, V domains shown, Humanized L3D10; also called H3106 + L3107; HL12) VH: QVQLQESGPGLVKPSETLSLTCTVSGFSLTSYGLSWIRQPPGKGLEWIGYIWYDGNTNFHPSLKSRVTISKDTSKNQFSLKLSSVTAADTAVYYCAKTEGHYYGSNYGYYALDYWGQGTSVTVSS VL: DIQMTQSPSSLSASVGDRVTITCRASENIYSNLAWYQQKQGKAPKLLLYAATNLQDGVPSRFSGSGSGTDYTLTISSLQPEDFATYFCQHLWGTPYTFGQGTKLEIK | – | – | – | binding result (Control IgG1-Fc [4]): no binding (tested: 0.2 µg/mL); binding result [5]: no binding
4 | Humanized HC3 + LC2 (PP4637) (antibody, IgG1, V domains shown, Humanized L3D10; also called H3108 + L3107; HL32) VH: QVQLQESGPGLVKPSETLSLTCTVSGFSLTSYGLSWIRQPPGKGLEWIGYIWYDGNTNFHSPLKSRVTISVDTSKNQFSLKLSSVTAADTAVYYCAKTEGHYYGSNYGYYALDYWGQGTLVTVSS VL: DIQMTQSPSSLSASVGDRVTITCRASENIYSNLAWYQQKQGKAPKLLLYAATNLQDGVPSRFSGSGSGTDYTLTISSLQPEDFATYFCQHLWGTPYTFGQGTKLEIK | – | – | – | binding result (M14): no binding (tested: 0.2 µg/mL); binding result (M16): no binding (tested: 0.2 µg/mL); binding result (M12): no binding (tested: 0.2 µg/mL); binding result [5]: no binding; binding result (Control IgG1-Fc [6]): no binding (tested: 0.2 µg/mL)
5 | Humanized HC1 + LC1 (PP4630) (antibody, IgG1, V domains shown, Humanized L3D10; also called H3106 + L3106) VH: QVQLQESGPGLVKPSETLSLTCTVSGFSLTSYGLSWIRQPPGKGLEWIGYIWYDGNTNFHPSLKSRVTISKDTSKNQFSLKLSSVTAADTAVYYCAKTEGHYYGSNYGYYALDYWGQGTSVTVSS VL: DIQMTQSPSSLSASVGDRVTITCRASENIYSNLAWYQQKPGKAPKLLLYAATNLQSGVPSRFSGSGSGTDFTLTISSLQPEDFATYYCQHLWGTPYTFGGGTKLEIK | 13 | 0.0018 | 130000 | –
6 | Humanized HC1 + LC3 (PP4632) (antibody, IgG1, V domains shown, Humanized L3D10; also called H3106 + L3108) VH: QVQLQESGPGLVKPSETLSLTCTVSGFSLTSYGLSWIRQPPGKGLEWIGYIWYDGNTNFHPSLKSRVTISKDTSKNQFSLKLSSVTAADTAVYYCAKTEGHYYGSNYGYYALDYWGQGTSVTVSS VL: DIQMTQSPSSLSASVGDRVTITCRASENIYSNLAWYQQKPGKAPKLLIYAATSLQSGVPSRFSGSGSGTDFTLTISSLQPEDFATYYCQHLWGTPYTFGGGTKVEIK | 12 | 0.0019 | 160000 | –
7 | Humanized HC2 + LC1 (PP4633) (antibody, IgG1, V domains shown, Humanized L3D10; also called H3107 + L3106) VH: QVQLQESGPGLVKPSETLSLTCTVSGFSLTSYGLSWIRQPPGKGLEWIGYIWYDGNTNFHSSLKSRVTISKDTSKSQVSLKLSSVTAADTAVYYCAKTEGHYYGSNYGYYALDYWGQGTLVTVSS VL: DIQMTQSPSSLSASVGDRVTITCRASENIYSNLAWYQQKPGKAPKLLLYAATNLQSGVPSRFSGSGSGTDFTLTISSLQPEDFATYYCQHLWGTPYTFGGGTKLEIK | 7.1 | 0.0014 | 200000 | –
8 | Humanized HC2 + LC2 (PP4634) (antibody, IgG1, V domains shown, Humanized L3D10; also called H3107 + L3107) VH: QVQLQESGPGLVKPSETLSLTCTVSGFSLTSYGLSWIRQPPGKGLEWIGYIWYDGNTNFHSSLKSRVTISKDTSKSQVSLKLSSVTAADTAVYYCAKTEGHYYGSNYGYYALDYWGQGTLVTVSS VL: DIQMTQSPSSLSASVGDRVTITCRASENIYSNLAWYQQKQGKAPKLLLYAATNLQDGVPSRFSGSGSGTDYTLTISSLQPEDFATYFCQHLWGTPYTFGQGTKLEIK | 6.8 | 0.0019 | 280000 | –
9 | Humanized HC2 + LC3 (PP4635) (antibody, IgG1, V domains shown, Humanized L3D10; also called H3107 + L3108) VH: QVQLQESGPGLVKPSETLSLTCTVSGFSLTSYGLSWIRQPPGKGLEWIGYIWYDGNTNFHSSLKSRVTISKDTSKSQVSLKLSSVTAADTAVYYCAKTEGHYYGSNYGYYALDYWGQGTLVTVSS VL: DIQMTQSPSSLSASVGDRVTITCRASENIYSNLAWYQQKPGKAPKLLIYAATSLQSGVPSRFSGSGSGTDFTLTISSLQPEDFATYYCQHLWGTPYTFGGGTKVEIK | 8.4 | 0.002 | 240000 | –
10 | Humanized HC3 + LC1 (PP4636) (antibody, IgG1, V domains shown, Humanized L3D10; also called H3108 + L3106) VH: QVQLQESGPGLVKPSETLSLTCTVSGFSLTSYGLSWIRQPPGKGLEWIGYIWYDGNTNFHSPLKSRVTISVDTSKNQFSLKLSSVTAADTAVYYCAKTEGHYYGSNYGYYALDYWGQGTLVTVSS VL: DIQMTQSPSSLSASVGDRVTITCRASENIYSNLAWYQQKPGKAPKLLLYAATNLQSGVPSRFSGSGSGTDFTLTISSLQPEDFATYYCQHLWGTPYTFGGGTKLEIK | 8.7 | 0.0022 | 250000 | –
11 | Humanized HC3 + LC3 (PP4638) (antibody, IgG1, V domains shown, Humanized L3D10; also called H3108 + L3108) VH: QVQLQESGPGLVKPSETLSLTCTVSGFSLTSYGLSWIRQPPGKGLEWIGYIWYDGNTNFHSPLKSRVTISVDTSKNQFSLKLSSVTAADTAVYYCAKTEGHYYGSNYGYYALDYWGQGTLVTVSS VL: DIQMTQSPSSLSASVGDRVTITCRASENIYSNLAWYQQKPGKAPKLLIYAATSLQSGVPSRFSGSGSGTDFTLTISSLQPEDFATYYCQHLWGTPYTFGGGTKVEIK | 8.1 | 0.0023 | 290000 | Kd [8]: 9.4 nM; koff [8]: 0.0021 s⁻¹; kon [8]: 230000 M⁻¹ s⁻¹; Kd [9]: 11 nM; koff [9]: 0.0022 s⁻¹; kon [9]: 210000 M⁻¹ s⁻¹
12 | chimeric L3D10 antibody (antibody, V domains shown, biotinylated (sites not given), Mouse L3D10 variable regions on human IgG1 with M252Y, S254T, T256E, S298A, E333A, K334A; Used biotinylated in the ELISA; also called Biotin-L3D10; PP4629) VH: QVQLKESGPGLVAPSQSLSITCTVSGFSLTSYGLSWVRQPPGKGLEWLGVIWYDGNTNFHSALISRLTISKDNSKSQVFLELNSLQTDDTATYYCAKTEGHYYGSNYGYYALDYWGQGTSVTVSS VL: DIQMTQSPASLSVSVGETVTITCRASENIYSNLAWYQQKQGKSPQLLVYAATNLADGVPSRFSGSGSGTQYSLKINSLQSEDFGTYFCQHLWGTPYTFGGGTKLEIKR | – | – | – | OD450 [10]: 3.03 OD
13 | human B7-1 Fc fusion protein (Fc fusion, UniProt P33681 35-242, looked up, biotinylated (sites not given), Control protein; Used biotinylated in soluble phase; also called Biotin-HB7-1; Biotin-hB7-1; not shown: Fc portion) VIHVTKEVKEVATLSCGHNVSVEELAQTRIYWQKEKKMVLTMMSGDMNIWPEYKNRTIFDITNNLSIVILALRPSDEGTYECVVLKYEKDAFKREHLAEVTLSVKADFPTPSISDFEIPTSNIRRIICSTSGGFPEPHLSWLENGEELNAINTTVSQDPETELYAVSSKLDFNMTTNHSFMCLIKYGHLRVNQTFNWNTTKQEHFPDN | – | – | – | OD450 [11]: 0.279 OD; OD450 [12]: 3.63 OD; OD450 [13]: 3.41 OD
